Test: soluble on expression in E. coli; label from the status in PepcDB or PDB records

| Sequence | soluble on expression in E. coli |
| --- | --- |
| MGSDKIHHHHHHMNVHKIVWQEGMLLRPQHLQHNDRYYDNQMKARTQLLGSYNWGFLALELDRQFLNMGKLVISQASGVLPDGSLFELGGNTEPLALDVPPNTSNVPIYLALPLVTGNHIEARRPEQAEVLARYTAYDLEVADSNAGEDSMVQVSCARPDFRLLLGEQQSDQAYVKLKVAVVLDSTPDGVISLDPDFVPSYLHAHASAYLLSCLKEVISMLGHRGDTIAERIRSNGKVGGAEVGDFMMLQLINRTELLLRHYLGLEQVHPEQLYRVLLTMLGDLATFGSESKRPRLDSRYQHSDQGASFRRLMEAIRQVLSMVLEQHAIELPLQARQYGILVSPLHDHKLLGSASFVLAASANCESEELRQRLPAHLKVGAVEHIRQLVNLHLPGIRVKPLPVAPRQIPFHSNKTYFILEPNAEDMAQLERSGGFAFHVSGEFSELELKFWAIRN | not soluble |
| MGSDKIHHHHHHMLNLDFAKRVIIETAKQEWVDSPASGVRRKLLEREEAERGRATSIVEYKPGASFSTHEHPLGEEILVLEGVFSDENGDYPAGTYIRNPPGSSHAPFSKDGCKLLVKLHQFQPTDTQVVRINTHEAEWLPGQGGLEVMPLHSHGTEHVALVKWPANEVFKPHRHLGGEEILVLSGEFCDEHGRYPEGTWMRSPHTSVHHPFVDRETIIWVKTGHLG | not soluble |
| APKNGTVQEKKFFSKELNEEMTLLVYLPSNYSPLYKYHVIIAQDGHDYFRLGRIGRQVEELLSKREIDRSIIIGVPYKDVKERRNTYHPEGSKFSAYKRFIAHELVPFADDEYPTYQIGYGRTLIGDSLGATVSLMTALDYPNMFGNIIMQSPYVDKHVLEAVKQSDDIKHLSIYHQIGTKETDVHTTDGNILDFTEPNRELKQLLEKKLSDYDFEPFDGDHKWTYWQPLITPALKKML | not soluble |
| MVFEEFISTELKKEKKAFTEEFKEEKEINDNSNLKNDLLKEELQEKARIAELESRILKLELEKKELERENLQLMKENEILRRELDRMRVPPLIVGTVVDKVGERKVVVKSSTGPSFLVNVSHFVNPDDLAPGKRVCLNQQTLTVVDVLPENKDYRAKAMEVDERPNVRYEDIGGLEKQMQEIREVVELPLKHPELFEKVGIEPPKGILLYGPPGTGKTLLAKAVATETNATFIRVVGSELVKKFIGEGASLVKDIFKLAKEKAPSIIFIDEIDAIAAKRTDALTGGDREVQRTLMQLLAEMDGFDARGDVKIIGATNRPDILDPAILRPGRFDRIIEVPAPDEKGRLEILKIHTRKMNLAEDVNLEEIAKMTEGCVGAELKAICTEAGMNAIRELRDYVTMDDFRKAVEKIMEKKKVKVKEPAHLDVLYR | soluble |
| MVTINNARKILQRVDTLPLYLHAYAFHLNMRLERVLPADLLDIASENNLRGVKIHVLDGERFSLGNMDDKELSAFGDKARRLNLDIHIETSASDKASIDEAVAIALKTGASSVRFYPRYEGNLRDVLSIIANDIAYVRETYQDSGLTFTIEQHEDLKSHELVSLVKESEMESLSLLFDFANMINANEHPIDALKTMAPHITQVHIKDALIVKEPGGLGHKACISGQGDMPFKALLTHLICLGDDEPQVTAYGLEEEVDYYAPAFRFEDEDDNPWIPYRQMSETPLPENHLLDARLRKEKEDAINQINHVRNVLQQIKQEANHLLNH | soluble |
| MTDLIHRPRRLRKSAALRAMFEETTLSLNDLVLPIFVEEELDDYKAIDAMPGVMRIPEKQLAREIERIANAGIRSVMTFGISHHTDDTGSDTWKEDGLVARMSRICKQTVPEMIVMSDTCFCEYTSHGHCGVLCEHGVDNDATLANLGKQAVIAAAAGADFIAPSAAMDGQVQAIRQALDAAGFTDTAIMSYSTKFASSFYGPFREAAGTALKGDRKTYQMNPMNRREAIRESLLDEAQGADCLMVKPAGAYLDVLREIRERTELPLGAYQVSGEYAMIKFAAMAGAIDEEKVVLESLGSIKRAGADLIFSYFALDLAEKNILR | not soluble |
| GMYLKELSMMPGVSGDEGKVRDFIKSKIEGLVDNLYTDVLGNLIALKRGRDSSKKLLVSAHMDEVGFVVSKIEKDGKVSFLPVGGVDPRILPGKVVQVKNLKGVIGYRPIHLQRDEENTPPRFENLRIDFGFSSADEAKKYVSIGDYVSFVSDYIEKNGRAVGKAFDDRAGCSVLIDVLESGVSPAYDTYFVFTVQEETGLRGSAVVVEQLKPTCAIVVETTTAGDNPELEERKWATHLGDGPAITFYHRGYVIPKEIFQTIVDTAKNNDIPFQMKRRTAGGTDAGRYARTAYGVPAGVISTPARYIHSPNSIIDLNDYENTKKLIKVLVEEGKIVEVVS | soluble |
| MIKIKENRMSQSNVIIVHGAYGHPFENWFNWMKTELESLGIECFVPQLPTPDGQELKNWLHVFNSTVSPMITHDTILIGHSLGSAFLLRWLEQANQSVFSTILAGSFIGTVGIQKFDKINESFFENGFDWHSIINKSKQFFCYHGSNDPYISRSNFNFIANNLQARKIIISQGGHLNEAAGFSSFPQLLIQLKSLLGINYGKFI | not soluble |
| MKKRAACLCFRSEREDEVLLVSSSRYPDRWIVPGGGMEPEEEPGGAAVREVYEEAGVKGKLGRLLGVFEQNQDPEHRTYVYVLTVTELLEDWEDSVSIGRKREWFKVEDAIKVLQCHKPVHAEYLEKLKAHHHHHH | soluble |
| SALAVEADPAADRVSSLSNVSGVLGSQWGDEGKGKLVDVLAPRFDIVARCQGGANAGHTIYNSEGKKFALHLVPSGILHEGTLCVVGNGAVIHVPGFFGEIDGLQSNGVSCDGRILVSDRAHLLFDLHQTVDGLREAELANSFIGTTKRGIGPCYSSKVTRNGLRVCDLRHMDTFGDKLDVLFEDAAARFEGFKYSKGMLKEEVERYKKFAERLEPFIADTVHVLNESIRQKKKILVEGGQATMLDIDFGTYPFVTSSSPSAGGICTGLGIAPRVIGDLIGVVKAYTTRVGSGPFPTELLGEEGDVLRKAGMEFGTTTGRPRRCGWLDIVALKYCCDINGFSSLNLTKLDVLSGLPEIKLGVSYNQMDGEKLQSFPGDLDTLEQVQVNYEVLPGWDSDISSVRSYSELPQAARRYVERIEELAGVPVHYIGVGPGRDALIYK | soluble |
| MNKFVRLAAIAGLLLAGASYATDTTYRIDQLPQLRQEPEHATVSERVTSRFTRSHYRQFALDDQFSAKIFDRYLNMLDYSHNVLLASDVAQFADKKYSLDKELKSGQLDTPFALFNLAQKRRFERYQYALSVLDRPMVFTGNDTIDIDRAKAPWPSSEAELNALWDAKVKYDQLNLKLAGKTDKEIKETLTKRYQSAIKRLTQSNSEDVFQLIMNAFAREIDPHTNYLSPRNTEQFNTEMSLSLEGIGAVLQMDDDYTLINSMVPGGPAAKSKTIAVGDRVIGVGQAGKPMVDVIGWRLDDVVALIKGPKGSKVRLEILPAGKGTKPRTVTLTRERIRLEDRAVKMSVKTIGKERVGVLDIPGFYVGLTEDVKVQLQKLEKQNVSSIIIDLRSNGGGALTEAVSLSGLFIPSGPVVQVRDNNGKVREDSDTDGVVYYKGPLVVLVDRYSASASEIFAAAMQDYGRALIVGEPTFGKGTVQQYRSLNRIYDQMLRPEWPALGSLQYTIQKFYRVDGGSTQRKGVTPDIVMPTGVDPAETGENFEDNALPWDRINAASYTKTGDLKPWEPELLKNHAERIAANPEFQYIQKDIERYKALKDKRNIVSLNYAQREKENRDDDMTRLTRLNERFIREGKKPLKSLDDLPKDYQEPDPYLDETVNIALDLAHKEKAQPQIASRPVAAATAGATVK | not soluble |
| MSLKQNGGLTDLTGSVAFGTTPLSPGVTDRLYYPSRRNKGAALSDDKACFLSVPRSGGKGPPPEYDGAGRVTLFSGYLFDRERLARKLGGDHSWPDVRLAAAWIAHHGLDRLADLAGDYALSHWDPGARRLFLAVAPMGSRLLYWHRVGTICHFATTVAGLHRIPDIPRVVDPLHLTARFSAMVGDPTRTVYKDIHQIVPGDMLVADVNANRYVPLWRPDAERRLRLANEREYLEAADELLERAVARRLQAAHAPAFLSSGGLDSAAMLTTASRLAGDRKVRSYTIVPSPGLCVTADRGWYGDERAKVADLAASHTNLDIRLCHSLVPSPLETNPAHLFMATGLPCMIANQIGWLDIAFQQMQQAGHDAVLSGQSGNFTFSYDGNLCFADLIREGRPLTALRLLAQVARYKQQGFAPMVRHRVVVPLLPDAFYYGQRRWRGRPHPLADRTLTRPGWREKVGLDDYLADHGEQPFQERDSRSRQQIIHFMLKRRAMTLPNAHALETVRGTHYRDVYADRDLLEFILAIPRDQFILDGRNRSLARRLLAMRGVPDSIVNERAIGQEGHHHHHH | not soluble |
| MSLIKLIATDMDGTLLNAAHEISQPNIDAIKYAQEQGITVVIATGRAFYEAQAPVADTDLTVPYICLNGAEVRDETFNVMSTSHLNKSLVHKITNVLKDAGIYYQVYTSRAIYTEDPQRDLDIYIDIAERAGQHANVERIKNGIQRRIDNGTLKVVDNYDAIENIPGELIMKILAFDGNLEKIDKASKILAESPNLAISSSSRGNIEITHSDAQKGIALETIAERLGIEMKDVMAIGDNLNDLSMLEKVGYPVAMENGAEEVKKIAKYVTDTNENSGVGKAIMKLLREQEGHHHHHH | soluble |
| MPTFLELNTTISVKEKELLTKEQFDKLLQAPNTTTLARLLHQSVYHLTVDDLNDLDRLESILMAELTKTYRWAFAETPQPDIVQLFTLRYTYHNVKVLLKAKASQADLSHLLLPIGDKPLVALEHLIRTMTSDEFPKEVVTEIQSIWAEYQDYQDIRVLEIGTDLAYFKALKQIAQRLEDPVFQQAVLIVIDLYNLITVRRAKSQNKPISFMMQLLSDEASRPSKTFITLEDDKDLMTWFENVTPDSYMTALKPYSEKLRQGTLQTTELEYLVDECLYHLFAKAKYQVDGPYVLARFLLAKSFEVKNLRLLAAALANDLPKERVIERMRPIA | not soluble |
| MIYKSIAERLRIRLNSADFTLNSLLPGEKKLAEEFAVSRMTIRKAIDLLVAWGLVVRRHGSGTYLVRKDVLHQTASLTGLVEVLKRQGKTVTSQVLIFEIMPAPPAIASQLRIQINEQIYFSRRVRFVEGKPLMLEDSYMPVKLFRNLSLQHLEGSKFEYIEQECGILIGGNYESLMPVLADRLLARQMKVAEHTPLLRITSLSYSESGEFLNYSVMFRNASEY | not soluble |
| MGHHHHHHENLYFQSHLYFQSHDCGSAVTERPKAAPIPTVNPEGKLKKEPNMFSPTLMLPGLGTLSSSQMYPACSQMPTQPAQLGPGKQDTLHSCWQQLYSPSPSASSLLSLHSHSSFTAEVPQPGAQGSSSLPAYNPLNWPDEKNSSFYRNFGNTHGMGAALVSAAGMQSVSSSSIVQGTHQASATTASIMTMPRTPGEVPFLRQQVGYRS | not soluble |
| MSDLADNAIDAARQENVARILEAAERLFRHYGYAKTNVADIARELDMSPANIYRFFASKTEIHQTLCLRMLGASYQQALEIAHLPLSASERLRRYALGQHKLTVETMLDEQKVHEMVVVAIERDWHVIEKHISRLDDLLAGIIREGIEAGEFADVDPAVAARCFGASLVTLCHPQIVAQCLAKENRATPDELVEFAIRALKK | soluble |
| MGSDKIHHHHHHLCRKDASQPSMYDLHRLGWNSFQQLCLTIAREVLAQSVKSFLDSNDGGRDGAFCGTWTPTKNETMSGSFVIQCKFTSKPNALLAKEDIAAELPKIRRLTEKGLCDVYVLMTNAGVSGKQEERIAAELTSAGAKNVLILGGTWITDQIRENTRLRTLVPRVYGLGDLSQILDERAYEQARAVLDSLREDLAKVVMTSAYRNAVDALDRHGFVLLIGEPAAGKTTIASMLAMASADKWKSSVLRKR | not soluble |

Reference: the DeepSol protein solubility set
